The results in this text go back to PMC4422687.

The target in this assay is soluble HA-tagged canine SLAM (UniProt Q95MM9). To be noted: parent: est. 100; read off a plot.

Turning to “CDV H-wt, full length attachment protein (hemagglutinin) H of canine distemper virus strain A75/17, FLAG-tagged F131A”, the percent of parent was 93 % to control. With “CDV H-wt, full length attachment protein (hemagglutinin) H of canine distemper virus strain A75/17, FLAG-tagged N128A”, the percent of parent was 84 % to control. On to “CDV H-wt, full length attachment protein (hemagglutinin) H of canine distemper virus strain A75/17, FLAG-tagged D132A”, for which the percent of parent is 98 % to control. As for “CDV H-wt, full length attachment protein (hemagglutinin) H of canine distemper virus strain A75/17, FLAG-tagged L136A”, the percent of parent is 70 % to control. With “CDV H-wt, full length attachment protein (hemagglutinin) H of canine distemper virus strain A75/17, FLAG-tagged F133A”, the percent of parent was 160 % to control. Turning to “CDV H-wt, full length attachment protein (hemagglutinin) H of canine distemper virus strain A75/17, FLAG-tagged N126A”, the percent of parent was 94 % to control. Regarding “CDV H-wt, full length attachment protein (hemagglutinin) H of canine distemper virus strain A75/17, FLAG-tagged R134A”, the percent of parent was 110 % to control.

As to “CDV H-wt, full length attachment protein (hemagglutinin) H of canine distemper virus strain A75/17, FLAG-tagged D135A”, the percent of parent was 130 % to control. The result for “CDV H-wt, full length attachment protein (hemagglutinin) H of canine distemper virus strain A75/17, FLAG-tagged E130A” reads 54 % to control; that for “CDV H-wt, full length attachment protein (hemagglutinin) H of canine distemper virus strain A75/17, FLAG-tagged H137A”, 86 % to control; that for “CDV H-wt, full length attachment protein (hemagglutinin) H of canine distemper virus strain A75/17, FLAG-tagged R129A”, 110 % to control. As to “CDV H-wt, full length attachment protein (hemagglutinin) H of canine distemper virus strain A75/17, FLAG-tagged W138A”, the percent of parent was 98 % to control. Take “CDV H-wt, full length attachment protein (hemagglutinin) H of canine distemper virus strain A75/17, FLAG-tagged P127A”: the percent of parent was 61 % to control.
